The labels stand for the following.
B1: Membrane-associated guanylate kinase, WW and PDZ domain-containing protein 3, residues 287 to 329; numbered along this chain, Q5TCQ9 (parent)
chain: MRDETLEPLPKNWEMAYTDTGMIYFIDHNTKTTTWLDPRLCKK
B2: Heterogeneous nuclear ribonucleoprotein U-like protein 2, residues 1 to 40; numbered along this chain, Q1KMD3 (parent)
chain: MEVKRLKVTELRSELQRRGLDSRGLKVDLAQRLQEALDAE

± gives the uncertainty stated by the source.

In one series the parent is B1. Description: abundance fitness (aPCA) (normalised: wild type 0, dead -1); higher = more abundant; growth selection in yeast, the domain comes from the species named. The conditions noted are these: Homo sapiens.
For the variant T34K, the abundance fitness is -0.719 ± 0.048. On the same count and under the same terms, then Y24F, with -0.146 ± 0.06; and Y24V, with -0.567 ± 0.04; and Y24K, with -0.668 ± 0.071. In the case of R2S, the abundance fitness is -0.164 ± 0.044.

Take R2A: the abundance fitness is -0.088 ± 0.039. In the case of R2V, the abundance fitness was -0.091 ± 0.033. In the case of R2L, the abundance fitness was -0.072 ± 0.054.

On to L40T, for which the abundance fitness was -0.085 ± 0.064. Same read-out and setting: then L40I, with -0.102 ± 0.081. As for L40S, the abundance fitness is -0.053 ± 0.033. P10E: the abundance fitness was -0.456 ± 0.057. Regarding P10S, the abundance fitness is -0.496 ± 0.037.

In the case of P10D, the abundance fitness is -0.527 ± 0.13. Regarding L36T, the abundance fitness was -0.078 ± 0.037. Consider L36F, for which the abundance fitness is -0.088 ± 0.037. For L36E, the abundance fitness is -0.097 ± 0.038. In the case of L36R, the abundance fitness is -0.013 ± 0.028. For the variant L36Y, the abundance fitness is -0.077 ± 0.081.

In a further series the parent is B2. The description is as above. The conditions noted are these: Homo sapiens.
Turning to A39V, the abundance fitness is -0.132 ± 0.059. For A39I, the abundance fitness was -0.497 ± 0.18. Take A39T: the abundance fitness is -0.088 ± 0.061. On the same count and under the same terms, as for A39Y, the figure is -0.367 ± 0.098; as for A39D, -0.185 ± 0.14; as for A39S, -0.06 ± 0.052. Take A39N: the abundance fitness is 0.153 ± 0.2. In the case of A39P, the abundance fitness is -0.272 ± 0.12. As for A39F, the abundance fitness is -0.159 ± 0.09. On to A39G, for which the abundance fitness was -0.036 ± 0.049.

As for A39H, the abundance fitness is -0.026 ± 0.12. For A39R, the abundance fitness amounted to 0.017 ± 0.049.

As for A39L, the abundance fitness is -0.118 ± 0.059.

Take A39W: the abundance fitness is -0.263 ± 0.061.

As to A39Q, the abundance fitness came to 0.005 ± 0.11.

As to A39K, the abundance fitness is -0.046 ± 0.079. As to A36L, the abundance fitness was -0.622 ± 0.075. Take A36K: the abundance fitness is -0.354 ± 0.07. As to A36F, the abundance fitness is -0.278 ± 0.12. In the case of A36N, the abundance fitness was -0.294 ± 0.1. Regarding A36W, the abundance fitness was -0.422 ± 0.065.

A36E: the abundance fitness was -0.213 ± 0.061. The same measure, in the same setting: as for A36G, the figure is -0.366 ± 0.05; as for A36R, -0.213 ± 0.049. As to A36Y, the abundance fitness is -0.231 ± 0.094.

For the variant A36S, the abundance fitness is -0.138 ± 0.055. The same measure, in the same setting: then A36C, with -0.048 ± 0.071. Regarding A36I, the abundance fitness is -0.314 ± 0.068. Take A36M: the abundance fitness is -0.397 ± 0.069. Consider A36P, for which the abundance fitness was -0.407 ± 0.063. Consider A36V, for which the abundance fitness is -0.104 ± 0.053. As to A36D, the abundance fitness is -0.371 ± 0.089. The same measure, in the same setting: then A36Q, with -0.211 ± 0.06. For A36T, the abundance fitness was -0.196 ± 0.072. Same read-out and setting: then E35Y, with -0.294 ± 0.12. On to E35V, for which the abundance fitness is -0.045 ± 0.059. For E35I, the abundance fitness is -0.167 ± 0.065.

As to E35T, the abundance fitness is 0.005 ± 0.064. On to E35P, for which the abundance fitness is -0.339 ± 0.059. E35L: the abundance fitness is -0.168 ± 0.054. On to E35F, for which the abundance fitness was -0.21 ± 0.079. The same measure, in the same setting: then E35S, with -0.018 ± 0.06; and E35D, with 0.036 ± 0.096; and E35M, with 0.009 ± 0.08. In the case of E35H, the abundance fitness was -0.055 ± 0.065. Same read-out and setting: as for E35N, the figure is -0.036 ± 0.096; as for E35C, -0.052 ± 0.064. Take E35K: the abundance fitness is 0.058 ± 0.079.

With E35G, the abundance fitness was -0.068 ± 0.049. For E35R, the abundance fitness was -0.047 ± 0.049. Take L37F: the abundance fitness is -0.112 ± 0.14.

As for L37I, the abundance fitness was 0.223 ± 0.14. Take L37R: the abundance fitness is -0.223 ± 0.048. The same measure, in the same setting: then L37C, with -0.276 ± 0.097; and L37W, with -0.266 ± 0.059.

For the variant L37G, the abundance fitness was -0.319 ± 0.049. Turning to L37M, the abundance fitness stood at 0.001 ± 0.059. For L37N, the abundance fitness is -0.381 ± 0.083. Same read-out and setting: as for L37D, the figure is -0.24 ± 0.064; as for L37V, -0.078 ± 0.057; as for L37A, -0.337 ± 0.056. Still for that read-out and setting: as for L37Q, the figure is -0.113 ± 0.061; as for L37S, -0.346 ± 0.054.

As to L37T, the abundance fitness was -0.179 ± 0.054.

Turning to L37H, the abundance fitness is -0.032 ± 0.11. For L37K, the abundance fitness is -0.199 ± 0.089.

In the case of L37E, the abundance fitness is -0.157 ± 0.066. For L37P, the abundance fitness is -0.282 ± 0.074. For the variant Q34C, the abundance fitness is -0.43 ± 0.081.

Consider Q34F, for which the abundance fitness is -0.722 ± 0.09. Regarding Q34L, the abundance fitness was -0.415 ± 0.055. On to Q34R, for which the abundance fitness was -0.308 ± 0.051. With Q34A, the abundance fitness is -0.205 ± 0.055. The same measure, in the same setting: then Q34I, with -0.432 ± 0.11. As for Q34N, the abundance fitness was -0.119 ± 0.15. Take Q34W: the abundance fitness was -0.624 ± 0.061. In the case of Q34E, the abundance fitness is -0.099 ± 0.058. Still for that read-out and setting: then Q34D, with -0.256 ± 0.074; and Q34M, with -0.283 ± 0.064.

On to Q34P, for which the abundance fitness is -0.396 ± 0.066.

Take Q34S: the abundance fitness was -0.171 ± 0.059.

As to Q34K, the abundance fitness is -0.18 ± 0.081. Consider Q34Y, for which the abundance fitness is -0.515 ± 0.058. Consider Q34T, for which the abundance fitness was -0.145 ± 0.062.

In the case of Q34G, the abundance fitness is -0.236 ± 0.049. Consider Q34V, for which the abundance fitness was -0.413 ± 0.058. Turning to E40G, the abundance fitness is -0.224 ± 0.063. Regarding E40N, the abundance fitness is -0.253 ± 0.17.

For the variant E40I, the abundance fitness was -0.641 ± 0.1.

Consider E40L, for which the abundance fitness was -0.849 ± 0.082. E40Y: the abundance fitness is -0.518 ± 0.22. Take E40R: the abundance fitness was -0.381 ± 0.056. As to E40C, the abundance fitness was -0.017 ± 0.41. In the case of E40V, the abundance fitness was -0.529 ± 0.084. With E40P, the abundance fitness was -0.543 ± 0.28.

In the case of E40H, the abundance fitness was -0.545 ± 0.11. Take E40S: the abundance fitness is -0.311 ± 0.063.

For E40W, the abundance fitness was -1.14 ± 0.087. Turning to E40D, the abundance fitness was -0.122 ± 0.12.

E40T: the abundance fitness is -0.405 ± 0.22.

As to R32G, the abundance fitness is -0.339 ± 0.051.

As for R32W, the abundance fitness is -1 ± 0.081.

Turning to R32M, the abundance fitness is -0.567 ± 0.067. R32T: the abundance fitness was -0.405 ± 0.073.

As to R32L, the abundance fitness was -0.854 ± 0.063. Regarding R32S, the abundance fitness was -0.371 ± 0.065. Still for that read-out and setting: as for R32Q, the figure is -0.262 ± 0.08; as for R32Y, -0.191 ± 0.33; as for R32V, -0.643 ± 0.057. The same measure, in the same setting: as for R32I, the figure is -1.08 ± 0.2; as for R32N, -0.395 ± 0.089; as for R32P, -0.402 ± 0.087.

Consider R32H, for which the abundance fitness was -0.399 ± 0.076. On to D38P, for which the abundance fitness is -0.402 ± 0.12.

Turning to D38W, the abundance fitness is -0.36 ± 0.059. Regarding D38T, the abundance fitness is -0.027 ± 0.063. On to D38I, for which the abundance fitness is -0.629 ± 0.43. As for D38R, the abundance fitness was -0.217 ± 0.05. Turning to D38Y, the abundance fitness is -0.243 ± 0.083. Same read-out and setting: then D38N, with 0.113 ± 0.17. Still for that read-out and setting: as for D38V, the figure is -0.231 ± 0.055; as for D38C, -0.157 ± 0.076; as for D38G, -0.281 ± 0.054. Consider D38F, for which the abundance fitness was -0.33 ± 0.079.

As to D38S, the abundance fitness is -0.19 ± 0.054. Still for that read-out and setting: as for D38Q, the figure is -0.244 ± 0.089; as for D38M, -0.169 ± 0.11; as for D38K, -0.185 ± 0.072. Regarding D38L, the abundance fitness was -0.284 ± 0.061. Same read-out and setting: then D38E, with -0.013 ± 0.059; and D38A, with -0.198 ± 0.057.

Turning to D38H, the abundance fitness is -0.531 ± 0.16. L33I: the abundance fitness was -0.843 ± 0.15. The same measure, in the same setting: as for L33G, the figure is -0.189 ± 0.048.

For the variant L33N, the abundance fitness is -0.384 ± 0.097.

In the case of L33E, the abundance fitness is -0.085 ± 0.059. Regarding L33Q, the abundance fitness was -0.269 ± 0.074. Consider L33S, for which the abundance fitness was -0.243 ± 0.06.

For the variant L33C, the abundance fitness is -0.403 ± 0.082. With L33W, the abundance fitness was -0.626 ± 0.068. In the case of L33T, the abundance fitness was -0.349 ± 0.096. L33P: the abundance fitness is -0.06 ± 0.064. Same read-out and setting: as for L33K, the figure is -0.164 ± 0.092; as for L33R, -0.368 ± 0.048; as for L33M, -0.239 ± 0.063. As for L33D, the abundance fitness is -0.239 ± 0.071.

As to L33H, the abundance fitness was -0.467 ± 0.099. Still for that read-out and setting: then L33F, with -0.733 ± 0.15.

These data come from the Human Domainome abundance scans (Beltran et al. 2025).
